In PMC8567202, “Phosphoinositide-binding activity of Smad2 is essential for its function in TGF-β signaling” (The Journal of Biological Chemistry, 2021):

How the values were obtained:
HeLa cells = experiment: Confocal imaging of Smad2 localization; assay type: cell-based
Protocol: Supplemental Fig. S1. Confocal images of endogenous Smad2 and exogenously expressed EGFP-Smad2 in HeLa cells before (A) and 10 min after (B) TGF-β stimulation.
Endogenous Smad2 images were obtained by immunostaining using the Smad2-specific antibody. 10 ng/ml TGF-β was used for stimulation. Scale bars indicate 10 μm.
Supplemental Fig. S2. Suppression of endogenous Smad2 expression in HeLa cells by siRNA.
Western blot analysis showing that expression of endogenous Smad2 in HeLa cells was successfully suppressed by siRNA. 30 nM siRNA-3 was routinely used for knockdown experiments. For re-introduction of mouse Smad2 to these cells, see Fig. 5A. Glyceraldehyde 3-phosphate dehydrogenase (GAPDH) was used as a gel loading control. […]

[1] = SPR membrane binding to POPC/POPS/PI(3,4)P2 vesicles; conditions: POPC/POPS/PI(3,4)P2 (77:20:3), 1 μM Smad2
Protocol: Figure 1 Membrane-binding properties of Smad2 FL protein and MH2 domain determined by SPR analysis.A, PtdInsP selectivity of Smad2-FL determined using POPC/POPS/PtdInsP (77:20:3 in mole ratio) LUVs coated on the L1 sensor chip. The protein concentration was 100 nM. PIP3 indicates PI(3,4,5)P3. B, determination of Kd for binding of Smad2 FL to different LUVs. The protein concentration was varied from 0 to 500 nM. C, PI(4,5)P2 concentration dependence of membrane binding of Smad2-FL determined using POPC/POPS/PI(4,5)P2 (77-x:20:x, x = 0–5 mol%) LUVs. The protein concentration was 100 nM. D, PtdInsP selectivity of the Smad2 MH2 domain determined using POPC/POPS/PtdInsP (77:20:3 in mole ratio) LUVs. […] RUmax values determined for different vesicles at 1 μM Smad2 were: 280 ± 20 for POPC/POPS/PI(4,5)P2 (77:20:3), 370 ± 10 for POPC/POPS/PI(3,4)P2 (77:20:3), 400 ± 15 for POPC/POPS/PI(3,4,5)P3 (or PIP3) (77:20:3), 400 ± 20 for POPC/POPS/PI(3)P (77:20:3), and 380 ± 20 for POPC/POPS (80:20). […]
All SPR measurements were performed at 23 °C in 20 mM Tris, pH 7.4, containing 0.16 M NaCl using a lipid-coated L1 chip in the BIACORE X-100 system (GE Healthcare) as described previously ([19], [38]). […] Sensorgrams were collected for both membrane association and dissociation but the only the association phases were further analyzed because the dissociation phases were often too slow for analysis. […]

B1: EGFP-Smad2 WT: mouse EGFP-Smad2 wild type transfected into HeLa cells (protein, UniProt Q62432 2-467, looked up)
Mothers against …: SSILPFTPPVVKRLLGWKKSAGGSGGAGGGEQNGQEEKWCEKAVKSLVKKLKKTGRLDELEKAITTQNCNTKCVTIPSTCSEIWGLSTANTVDQWDTTGLYSFSEQTRSLDGRLQVSHRKGLPHVIYCRLWRWPDLHSHHELKAIENCEYAFNLKKDEVCVNPYHYQRVETPVLPPVLVPRHTEILTELPPLDDYTHSIPENTNFPAGIEPQSNYIPETPPPGYISEDGETSDQQLNQSMDTGSPAELSPTTLSPVNHSLDLQPVTYSEPAFWCSIAYYELNQRVGETFHASQPSLTVDGFTDPSNSERFCLGLLSNVNRNATVEMTRRHIGRGVRLYYIGGEVFAECLSDSAIFVQSPNCNQRYGWHPATVCKIPPGCNLKIFNNQEFAALLAQSVNQGFEAVYQLTRMCTIRMSFVKGWGAEYRRQTVTSTPCWIELHLNGPLQWLDKVLTQMGSPSVRCSSMS
modifications: EGFP fusion
notes: mouse EGFP-Smad2 wild type transfected into HeLa cells
With B1 the “localization in unstimulated cells” value (HeLa cells) was “mostly distributed in the cytoplasm with little prelocalization to the PM”.

B2: Smad2 WT: bacterially expressed full-length Smad2 wild-type (protein)
chain: MSSILPFTPPVVKRLLGWKKSAGGSGGAGGGEQNGQEEKWCEKAVKSLVKKLKKTGRLDELEKAITTQNCNTKCVTIPSTCSEIWGLSTANTVDQWDTTGLYSFSEQTRSLDGRLQVSHRKGLPHVIYCRLWRWPDLHSHHELKAIENCEYAFNLKKDEVCVNPYHYQRVETPVLPPVLVPRHTEILTELPPLDDYTHSIPENTNFPAGIEPQSNYIPETPPPGYISEDGETSDQQLNQSMDTGSPAELSPTTLSPVNHSLDLQPVTYSEPAFWCSIAYYELNQRVGETFHASQPSLTVDGFTDPSNSERFCLGLLSNVNRNATVEMTRRHIGRGVRLYYIGGEVFAECLSDSAIFVQSPNCNQRYGWHPATVCKIPPGCNLKIFNNQEFAALLAQSVNQGFEAVYQLTRMCTIRMSFVKGWGAEYRRQTVTSTPCWIELHLNGPLQWLDKVLTQMGSPSVRCSSMS
modifications: left off: His6, N-terminal, state not stated
notes: bacterially expressed full-length Smad2 wild-type
Work on B2 yielded an RUmax [1] of 370 ± 10.
